This assay concerns the target T1, LysGH15 SH3b domain (residues 368–495) (staphylococcal phage GH15, 15N (and/or 13C) labelled for NMR; N-terminal SNA tag remnant omitted (PDB 2MK5 entity residues 4-131 = 368-495)).
T1 chain: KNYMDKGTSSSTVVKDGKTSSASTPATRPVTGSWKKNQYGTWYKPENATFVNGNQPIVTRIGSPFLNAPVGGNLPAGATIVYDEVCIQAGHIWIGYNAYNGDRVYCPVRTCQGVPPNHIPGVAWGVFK
The assay can be described thus: NMR titration; 1H-15N HSQC spectra of 15N-labelled SH3b on addition of the peptide (100 mM stock in the buffer of the SH3b sample); 298 K; KD from a fit of the chemical shift perturbations; fast exchange. The conditions noted are these: both partners purified.

We go through 1 molecule from publication PMC4022735, “Structural and Biochemical Characterization Reveals LysGH15 as an Unprecedented “EF-Hand-Like” Calcium-Binding Phage Lysin” (PLoS Pathogens, 2014).

B1: peptide “AGGGGG” (peptide)
peptide: AGGGGG
notes: synthetic peptide used as previously reported for the SH3b domain of ALE-1; Not a stretch of a named natural protein; also called the peptide; source: synthetic peptide (Sangon Biotech (Shanghai) Co., Ltd.)
As a reminder, the Kd is the constant that tells how readily two partners part at equilibrium. Consider B1, for which the equilibrium dissociation constant (Kd) is approximately 3000 µM.
